“And” between values parts separate entries of the source, which are not always exact repeats. Equal values may be shown once.

This note sets out measurements from patent US20160228502A1.

In assay [1] the target is SERCA1-CFP (rabbit) (UniProt P04191). Kind of assay: AFRET in COS7 cells, SERCA1-CFP as donor.
Another assay concerns the target sAnk1-CFP. In words: AFRET in COS7 cells, sAnk1-CFP as donor.
The target in assay [2] is sarco(endo)plasmic reticulum Ca^2+-ATPase 1 (SERCA1) (rabbit) (UniProt P04191). Kind of assay: coIP with antibodies to SERCA1 from COS7 extracts, with or without FLAG-SLN.
sarco(endo)plasmic reticulum Ca^2+-ATPase 1 (SERCA1) (rabbit), sequence (P04191 whole entry): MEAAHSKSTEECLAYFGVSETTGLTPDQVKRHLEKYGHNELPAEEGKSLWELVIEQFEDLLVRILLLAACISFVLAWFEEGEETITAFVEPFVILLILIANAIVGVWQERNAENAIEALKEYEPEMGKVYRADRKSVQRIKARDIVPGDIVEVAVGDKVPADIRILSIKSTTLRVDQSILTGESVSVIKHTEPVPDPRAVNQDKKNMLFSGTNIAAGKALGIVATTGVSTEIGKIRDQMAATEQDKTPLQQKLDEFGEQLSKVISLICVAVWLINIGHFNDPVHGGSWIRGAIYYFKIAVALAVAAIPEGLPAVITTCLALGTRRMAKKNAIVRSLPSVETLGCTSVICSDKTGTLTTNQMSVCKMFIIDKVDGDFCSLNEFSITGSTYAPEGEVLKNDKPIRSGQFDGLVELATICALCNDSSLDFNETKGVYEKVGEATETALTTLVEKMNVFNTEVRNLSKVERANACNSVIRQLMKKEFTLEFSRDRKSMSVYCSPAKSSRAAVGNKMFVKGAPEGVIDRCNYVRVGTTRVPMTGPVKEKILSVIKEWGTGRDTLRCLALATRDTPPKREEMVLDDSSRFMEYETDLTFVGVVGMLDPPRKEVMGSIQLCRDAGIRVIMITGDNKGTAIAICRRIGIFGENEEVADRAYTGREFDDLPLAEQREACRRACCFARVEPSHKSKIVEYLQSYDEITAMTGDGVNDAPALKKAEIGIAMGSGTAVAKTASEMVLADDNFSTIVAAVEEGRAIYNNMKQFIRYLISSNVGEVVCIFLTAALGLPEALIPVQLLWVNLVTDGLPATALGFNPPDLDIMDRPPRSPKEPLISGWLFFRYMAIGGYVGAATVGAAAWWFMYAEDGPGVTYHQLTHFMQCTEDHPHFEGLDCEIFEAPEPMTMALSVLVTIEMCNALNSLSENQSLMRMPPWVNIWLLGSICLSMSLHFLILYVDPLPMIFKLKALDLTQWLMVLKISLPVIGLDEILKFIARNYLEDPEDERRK
Assay [3] has the same target. In words: amylose resin pull down from COS7 extracts expressing SERCA1, immunoblot densitometry.
Assay [4] shares this target. Kind of assay: coIP with antibodies to sAnk1 from COS7 extracts, densitometry.
Assay [5] has the same target. In words: coIP from COS7 extracts, densitometry.
For assay [6] the target is unchanged. In words: coIP with antibodies to SERCA1 from COS7 extracts, densitometry.
For assay [7] the target is unchanged. Kind of assay: cell-based or functional assay.
For assay [8], the target named is SERCA1-CFP (rabbit) (UniProt P04191). In words: AFRET in living COS7 cells.
Another assay addresses SLN-YFP (rabbit) (UniProt P42532). In words: AFRET in COS7 cells.
Assay [9] concerns the target sarco(endo)plasmic reticulum Ca^2+-ATPase 1 (SERCA1) (rabbit) (UniProt P04191). In words: coIP with antibodies to SERCA1 from COS7 extracts, densitometry, with FLAG-SLN coexpressed.
Assay [10] has as its target SERCA1-CFP (rabbit) (UniProt P04191). Kind of assay: AFRET (Δr=rCFP-rFRET) in COS7 cells.
The target is the same in assay [11]. In words: AFRET in COS7 cells, FLAG-SLN cotransfected.
Assay [12] has the same target. Kind of assay: AFRET in COS7 cells.

SERCA1-CFP (rabbit), sequence (P04191 whole entry): as above
SLN-YFP (rabbit), sequence (P42532 whole entry): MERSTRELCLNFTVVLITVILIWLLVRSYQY

As to dysferlin-YFP, the AFRET Δrmean with SERCA1-CFP (rabbit) [1] is -0.035; in the assay with sAnk1-CFP it was -0.028.
In the case of sAnk1 (29-155)-FLAG, the fold enhancement of the interaction in the presence of FLAG-SLN in assay [2] was 2.7 fold.
“sAnk1 (29-155)-MBP fusion protein (from UniProt P0AEX9 27-392)”: in assay [3], the fold SERCA1 pulled down relative to the MBP control turned out to be 9 fold.
sAnk1 (all-L): the percent of SERCA1 coimmunoprecipitated compared to WT in assay [4] turned out to be 49%. In addition, in assay [5], the reduction in coIP, normalized to coIP of SERCA1 and sAnk1 (WT) is 50% and 34% to 61% (2×). This substance also displayed a percent of sAnk1 (all-L) coimmunoprecipitated compared to WT sAnk1 in assay [6] of 49%. In assay [7], the KCa2+ ([Ca^2+] required for half-maximal activation) of SERCA1 Ca^2+-ATPase, COS7 microsomes is 501 nM; the KCa2+ in pCa^2+ units, SERCA1 Ca^2+-ATPase, COS7 microsomes amounted to 6.3 pCa^2+ units; the Mean Kca (nM), Ca^2+-ATPase assay in COS7 microsomes, FIG. 6D stood at 502 nM; the Mean Kca (pCa), Ca^2+-ATPase assay in COS7 microsomes, FIG. 6D was found to be 6.3 pCa. In assay [7], the ΔKCa2+ relative to SERCA1 Alone was -0.02 pCa^2+ units and the ΔKCa2+, COS7 microsomes was -0.01 pCa^2+ units.
sAnk1 (all-L)-YFP: the AFRET Δrmean in the assay with SERCA1-CFP (rabbit) [8] is 0.017.
On to sAnk1-CFP, for which the AFRET Δrmean with SLN-YFP (rabbit) came to 0.03.
Turning to “sAnk1-FLAG (C-terminal FLAG-tagged sAnk1)”, the fold increase in coIP with SERCA1 on addition of FLAG-SLN, against co-transfection of SERCA1 and sAnk1 alone in [9] turned out to be 2.6 fold. In assay [7], this substance returned an HEK 293 mean Kca (nM), Ca^2+-ATPase assay of 680 nM; an HEK 293 mean Kca (pCa), Ca^2+-ATPase assay of 6.17 pCa; a KCa2+ ([Ca^2+] required for half-maximal activation) of SERCA1 Ca^2+-ATPase, COS7 microsomes, all assays compiled of 759 nM; a KCa2+ in pCa^2+ units, SERCA1 Ca^2+-ATPase, COS7 microsomes, all assays compiled of 6.12 pCa^2+ units. In assay [7], this substance returned a Mean Kca (nM), Ca^2+-ATPase assay in COS7 microsomes, FIG. 6B of 708 nM; a Mean Kca (nM), Ca^2+-ATPase assay in COS7 microsomes, FIG. 6D of 794 nM; a Mean Kca (pCa), Ca^2+-ATPase assay in COS7 microsomes, FIG. 6B of 6.15 pCa; a Mean Kca (pCa), Ca^2+-ATPase assay in COS7 microsomes, FIG. 6D of 6.1 pCa. In [7], the shift of SERCA1's apparent Ca^2+ affinity, COS7 microsomes is -0.18 pCa^2+ units; the ΔKCa2+ in HEK293 microsomes was -0.21 pCa^2+ units; the ΔKCa2+ relative to SERCA1 Alone was -0.2 pCa^2+ units; the ΔKCa2+, COS7 microsomes, experiment with sAnk1 (all-L) is -0.22 pCa^2+ units.
For the substance sAnk1-YFP, the AFRET Δrmean was 0.026 with SERCA1-CFP (rabbit) [10], 0.043 with SERCA1-CFP (rabbit) [8] and 0.021 with SERCA1-CFP (rabbit) [12]. Also, the AFRET Δrmean (cells cotransfected with FLAG-SLN) with SERCA1-CFP (rabbit) [11] was 0.036.
